Paper PMC2790986

B1: PON2 (paraoxonase-2), Cys311 and Ser311 variants: N254Q (printed N254G) (protein)
parent chain: MGRLVAVGLLGIALALLGERLLALRNRLKASREVESVDLPHCHLIKGIEAGSEDIDILPNGLAFFSVGLKFPGLHSFAPDKPGGILMMDLKEEKPRARELRISRGFDLASFNPHGISTFIDNDDTVYLFVVNHPEFKNTVEIFKFEEAENSLLHLKTVKHELLPSVNDITAVGPAHFYATNDHYFSDPFLKYLETYLNLHWANVVYYSPNEVKVVAEGFDSANGINISPDDKYIYVADILAHEIHVLEKHTNMNLTQLKVLELDTLVDNLSIDPSSGDIWVGCHPNGQKLFVYDPNNPPSSEVLRIQNILSEKPTVTTVYANNGSVLQGSSVASVYDGKLLIGTLYHRALYCEL
B2: PON2 (paraoxonase-2), Cys311 and Ser311 variants: N323Q (protein)
parent chain: B1 parent chain
B3: PON2 (paraoxonase-2), Cys311 and Ser311 variants: N254A (protein)
parent chain: B1 parent chain
B4: PON2 (paraoxonase-2), Cys311 and Ser311 variants: N323A (protein)
parent chain: B1 parent chain
B5: PON2 (paraoxonase-2), Cys311 and Ser311 variants: N254A/N323A (protein)
parent chain: B1 parent chain

Test: 3OC12-HSL inactivation by CHO lysate, bioassay
Conditions: glycan lost; control: wild-type PON2 Cys311

| Protein | enzymatic_activity |
| --- | --- |
| B1 | no change |
| B2 | decreases |
| B3 | no change |
| B4 | decreases |
| B5 | decreases |
